Assay results as given in article PMC12489035, “RABGAP1 is a sensor that facilitates the sorting and processing of amyloid precursor protein” (The EMBO Journal, 2025).

B1: RABGAP1 (natural protein)
chain: not shown
notes: also called GAPCenA; TBC1D11; source: endogenous, HEK293T lysate
B2: WT APP tail peptide starting from the MQQ sequence at position 677 (peptide, UniProt P05067-4 677-695, looked up)
peptide: MQQNGYENPTYKFFEQMQN
notes: amyloid precursor protein (APP), cytosolic tail from M677 (MQQ...); numbers count on: APP isoform 695; The peptide probably runs to the C-terminus of APP695 (residue 695); also called APPwt; WT APP peptide

Columns and labels:
[1] = target: T1, GST fused to the APP cytosolic tail mutant FFE689-91AAA (UniProt P05067-4 649-695, FFE689-91AAA); assay: pull-down; GST-APP tail WT, tail mutants or GST only on glutathione-Sepharose beads, incubated overnight at 4 °C with pre-cleared HEK293T lysate; eluted with 1.5 M NaCl; eluates immunoblotted for the hits; N = 3; settings: one partner purified
T1 construct: amyloid precursor protein (APP), cytosolic tail, residues 649-695; numbers count on: APP isoform 695; also called FFE689-9AAA; source: T7 express E. coli; clarified lysate loaded on glutathione-Sepharose 4B beads and washed
T1 chain (looked up): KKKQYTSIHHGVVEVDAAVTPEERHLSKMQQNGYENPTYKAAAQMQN

[2] = target: T2, His-tagged PTB domain of RABGAP1; assay: ITC; APP peptides titrated into about 100 μM His-PTB of RABGAP1 in 2.4 μl injections at 20 °C; 100 mM Tris pH 7.4, 300 mM NaCl, 1 mM TCEP; Nano ITC; three independent runs for the WT peptide; settings: both partners purified
T2 chain: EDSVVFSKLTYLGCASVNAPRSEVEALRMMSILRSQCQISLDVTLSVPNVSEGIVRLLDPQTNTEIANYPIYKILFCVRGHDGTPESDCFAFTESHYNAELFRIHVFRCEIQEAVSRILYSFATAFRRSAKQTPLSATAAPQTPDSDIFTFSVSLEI

Binder | fold change of binding against the WT tail [1] | Kd [2] | stoichiometry N [2]
B1 | ~3 fold |  | 
B2 |  | ~61 µM | 1
